This data set is described as follows: In vivo HA degradation tracked by Alexa Fluor 700 fluorescent signal (IVIS) in ischemic hindlimb. Also noted: species or system mice. The following applies: streptavidin alone injected into the hindlimb. The protocol: Biotinylated HA was suspended in deionized water overnight, and Alexa Fluor 700-conjugated streptavidin (Invitrogen, Grand Island, N.Y., USA) was prepared according to the manufacturer's instructions. The streptavidin and biotinylated HA were then mixed and gently agitated at 4° C. This mixture was filtered through Amicon centrifugal filter units (molecular-weight cut off 100 kDa; Millipore, Billerica, Mass., USA) to exclude extra streptavidin. The final products were freeze-dried and stored at 4° C.
hMSCs were cultured on 10-cm culture dishes and maintained at 37° C. under an atmosphere of 5% CO2 in air. A total of 4×10^6 hMSCs were mixed with 200 μl of αMEM culture medium or 1% HA and then injected into the ischemic muscles of mice. Immediately and at various intervals after the injection, the mice were imaged using a Xenogen IVIS® Spectrum device and the corresponding filter sets. The fluorescent intensity was determined by calculating the number of photons within the manually drawn ROI, and the intensity was adjusted to exclude tissue autofluorescence. […]

Turning to “Alexa Fluor 700 labeled streptavidin: Alexa Fluor 700-conjugated streptavidin (Invitrogen), injected alone as label control”, the “time until fluorescence disappeared” value is ≤ 12 h.
